Data as given in paper PMC8133803.

Target: SARS-CoV-2 spike S1+S2 ECD-His (SARS-CoV-2 (2019-nCoV), UniProt P0DTC2 16-1213)
Test: SPR

B1: apt-NS (ssDNA)
DNA: CACCAATATTTACGTTCTACTCTCCAATA
modifications: 5' BiotinTEG
Question: Does B1 bind?
Answer: no binding
